# Measured values published in patent US20100104550A1 (ADELAIDE RESEARCH AND INNOVATION, published 2010).
# B1: EGF-SubA fusion protein (Cys-tag, linker, human EGF, linker, SubA 22-347) (other)
# chain: MKESCAKKFQRQHMDSGGGGSGGGGSGGGGSMGNSDSECPLSHDGYCLHDGVCMYIEALDKYACNCVVGYIGERCQYRDLKWWELRSMADIGSEKPWYFDAIGLTETTMSLTDKNTPVVVSVVDSGVAFIGGLSDSEFAKFSFTQDGSPFPVKKSEALYIHGTAMASLIASRYGIYGVYPHALISSRRVIPDGVQDSWIRAIESIMSNVFLAPGEEKIINISGGQKGVASASVWTELLSRMGRNNDRLIVAAVGNDGADIRKLSAQQRIWPAAYHPVSSVNKKQDPVIRVAALAQYRKGETPVLHGGGITGSRFGNNWVDIAAPGQNITFLRPDAKTGTGSGTSEATAIVSGVLAAMTSCNPRATATELKRTLLESADKYPSLVDKVTEGRVLNAEKAISMFCKKNYIPVRQGRMSEEL
# How the values were obtained:
# [1] = target: EGF receptor (EGFR) on F98/EGFR rat glioma cells engineered to express 10^6 EGFR per cell (UniProt P00533 25-1210); assay: cell-based or functional assay
# [2] = target: EGF receptor (EGFR) on MDA231luc cells (luciferase-expressing derivative of EGFR-positive human brea (human (human breast carcinoma cells), UniProt P00533 25-1210)); assay: cell-based or functional assay
binder,measurement,setting,value
B1,"IC50 of cytotoxicity toward F98/EGFR cells (72 h, Cell Proliferation Assay)",[1],0.005 nM
same,"fold difference in cytotoxicity, F98/EGFR cells against parental F-98 cells",[1],500 fold
same,"IC50 of cytotoxicity toward MDA-231luc cells (72 h, Cell Proliferation Assay)",[2],~0.05 nM
